Earlier results in PMC9377792.

Biological target: uPAR (Homo sapiens) (UniProt Q03405)
UniProt Q03405, sequence (Q03405 23-305): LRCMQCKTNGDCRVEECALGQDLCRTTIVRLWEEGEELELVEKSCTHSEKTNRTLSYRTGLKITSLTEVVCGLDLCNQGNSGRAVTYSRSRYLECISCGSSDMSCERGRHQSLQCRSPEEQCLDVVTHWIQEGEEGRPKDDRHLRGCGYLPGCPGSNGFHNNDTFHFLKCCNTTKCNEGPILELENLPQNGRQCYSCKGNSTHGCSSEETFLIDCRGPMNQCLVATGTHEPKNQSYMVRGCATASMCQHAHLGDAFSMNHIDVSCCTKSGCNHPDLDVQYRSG

Kd: 0.0371 µM
Substance: Factor XII (from UniProt P00748)
